This note sets out measurements from patent USRE49026.

The assay concerns the target recombinant human IL-23R/Fc chimera (human) (UniProt Q5VWK5). Briefly: ELISA of conditioned media on coated IL-23R-Fc, anti-p40 detection.

recombinant human IL-23R/Fc chimera (human), sequence (Q5VWK5 24-353 limits assumed, change not shown): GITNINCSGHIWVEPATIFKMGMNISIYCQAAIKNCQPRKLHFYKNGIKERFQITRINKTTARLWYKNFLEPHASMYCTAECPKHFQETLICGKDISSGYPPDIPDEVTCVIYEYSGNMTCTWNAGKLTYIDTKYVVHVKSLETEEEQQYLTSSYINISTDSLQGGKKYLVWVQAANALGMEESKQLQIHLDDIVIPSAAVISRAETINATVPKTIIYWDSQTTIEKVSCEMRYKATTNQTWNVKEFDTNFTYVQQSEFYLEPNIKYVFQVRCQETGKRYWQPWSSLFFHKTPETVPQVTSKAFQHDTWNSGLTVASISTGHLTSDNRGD

“W2 IL-23 cytokine (p19 W2 to G mutant + p40) (from UniProt Q9NPF7 20-189; P29460 23-328) (ligand)”: the reduction of binding compared to WT came out at 50%.
